Source: patent US6852686B2, “Methods for ameliorating icthyosiform skin diseases” (The United States of America as represented by the …, priority 1999, dated 2005)
Where two headings read alike, the source gives them in different places.

Tests used:
TGase 1 [1] = target: T1, TGase 1 (Homo sapiens, UniProt P22735); assay: Kinetic parameters of 14C-putrescine incorporation by TGase 1; format: biochemical; conditions: for Km: KM pertains to the protein substrate, read-out: KM(app); for Vmax / kcat(putrescine): putrescine incorporation, 37° C.
T1 construct: Recombinant full-length human TGase 1 and TGase 3 enzymes were expressed in Sf9 cells by the BaculoGold system; made in house; host or cells: Sf9 insect cells, BaculoGold baculovirus system, pVL1392 vector
T1 sequence (P22735 1-817): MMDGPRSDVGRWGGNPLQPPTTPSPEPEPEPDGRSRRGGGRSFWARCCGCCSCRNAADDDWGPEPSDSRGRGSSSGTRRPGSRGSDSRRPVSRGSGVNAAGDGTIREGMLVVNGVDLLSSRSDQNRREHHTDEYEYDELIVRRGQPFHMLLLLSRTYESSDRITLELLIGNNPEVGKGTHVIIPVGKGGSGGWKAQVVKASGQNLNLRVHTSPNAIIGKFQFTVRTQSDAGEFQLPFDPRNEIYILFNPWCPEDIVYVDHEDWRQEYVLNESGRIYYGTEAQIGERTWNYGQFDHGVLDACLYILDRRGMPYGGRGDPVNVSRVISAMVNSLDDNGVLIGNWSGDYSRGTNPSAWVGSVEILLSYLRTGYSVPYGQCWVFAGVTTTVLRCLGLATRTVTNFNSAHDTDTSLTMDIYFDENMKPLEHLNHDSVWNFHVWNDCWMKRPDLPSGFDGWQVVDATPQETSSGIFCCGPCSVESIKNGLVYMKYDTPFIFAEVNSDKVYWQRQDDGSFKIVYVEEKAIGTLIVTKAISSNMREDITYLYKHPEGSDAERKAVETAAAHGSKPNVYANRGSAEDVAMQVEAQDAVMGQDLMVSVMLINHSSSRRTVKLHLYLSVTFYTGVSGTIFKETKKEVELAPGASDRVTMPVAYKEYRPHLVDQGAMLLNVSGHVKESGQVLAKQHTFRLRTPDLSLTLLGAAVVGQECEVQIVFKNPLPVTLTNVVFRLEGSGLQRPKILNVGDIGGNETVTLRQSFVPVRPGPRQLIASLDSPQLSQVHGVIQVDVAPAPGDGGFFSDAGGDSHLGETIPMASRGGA
From the text: One possibility is that this KM increase is due to the reduced diffusional mobility of the enzyme after attachment to the SLV. […] (Table 1). One reason for this is that a reduced access to many of the Gln residues occurs after anchorage of the enzyme. On the other hand, the Vmax value for the recombinant SPR2 substrate was almost unchanged.
The reaction rates were quantified by measuring the incorporated radioactivity as before (Thomas, M. V., Cellular Calcium, McCormack, et al., eds., pp. 115-123 (1991), herein expressly incorporated by reference in its entirety). Kinetic constants were obtained using the curve-fitting and regression analysis Sigmaplot 4.0 software. All data points represent the means of three measurements, each performed in triplicate.

[2] = test system: synthetic lipid vesicles (SLV); assay: Membrane association (binding) to synthetic lipid vesicles, SLV pelleted by ultracentrifugation
Description: Mixtures of dipalmitoyl-phosphatidylcholine, cholesterol, dipalmitoyl-phosphatidylserine (PS) and other lipids where indicated (all from Sigma, St. Louis, Mo.) were made in chloroform-methanol (95:5). In all cases, the mixtures contained 30% cholesterol. When the amounts of PS or other individual components were varied, phosphatidylcholine was added to make the mixture to 100%. Mixtures were made in 0.5 ml and contained 10 μmol of total lipids. The solvent was flushed away under a stream of N2, dried further under high vacuum for 4 h and then resuspended by vortexing in 0.5 ml of a buffer containing 50 mM Tris-Cl (pH 8.0), 100 mM NaCl, 3 mM NaN3, 5 mM DTT, and 200 mM sucrose. The mixture was sonicated on ice five times each for 1 min using a Branson 250 sonifier with micro probe tip, and allowed to stand at 23° C. to facilitate assembly of SLV. After 1 h the SLV were diluted with 0.5 ml of the above buffer without sucrose, and 200 μl aliquots were centrifuged at 100,000× g for 30 min in a Beckman Airfuge using the A-10 rotor. The top 175 μl was removed, and the pellet resuspended in another 150 μl of sucrose-free buffer. The final stock concentration was 11 μmol/ml.
In all cases, the buffer contained 50 mM Tris-HCl (pH 8.0), 100 mM NaCl, 1 mM DTT, 3 mM NaN3, and other additives where noted. Some mixtures also contained 1 mM CaCl2 or 2 mM EDTA. After mixing, the samples were centrifuged for 45 min at 100,000× g, and the protein content from 50 μl of supernatant was determined by amino acid analysis after acid hydrolysis. Data were usually not corrected for loss of SLV lipids, as in control experiments, cumulated losses were <4% as assayed by ^14C-phosphatidylcholine tracer, and thus neglected from the calculations.
(§1) The Ca^++ concentrations in the μM range were set by buffering free Ca^++ with chelators The desired Ca^++/chelator ratios were calculated by the WinMaxC 1.7 computer program (Bers, et al., Methods in Cell Biology Vol 40: A Practical Guide to the Study of Ca^2+ in Living Cells, Nuccitelli, R., ed., pp. 1-327 (1994), herein expressly incorporated by reference in its entirety), and were made by adding the required amounts of 1 M CaCl2 to 0.2 M stock solutions of the following chelators at pH 8.0. Final chelator concentrations in the samples were 10 mM in all cases. Sodium citrate was the chelator for the 20-500 μM Ca^++ range; sodium nitrilotriacetate for the 1-20 μM Ca^++ range; and sodium 1,2-bis(aminophenoxy)ethane-N,N,N′,N′ tetraacetate for the 0.1-1 μM Ca^++ range.

TGase 1 [3] = target: T1, TGase 1; assay: 14C-putrescine labeling of involucrin Gln residues by TGase 1; format: biochemical
Description: This was set far below saturating amounts on SLV in order to ensure that all enzyme was bound to the SLV.
After 4 h incubation at 37° C., the reactions were stopped by addition of EDTA to 10 mM and 100 μl 20% SDS, and vortexed. This mixture was precipitated and washed three times with acetone-triethylamine-acetic acid (90:5:5) (Konigsberg, W. H. and L. Henderson, Meth. Enzymol., 91: […] (1983), herein expressly incorporated by reference in its entirety) to remove the SDS and the lipids. After repeated washings with acetone, the pellet was redissolved in a buffer of 50 mM Tris-Cl (pH 7.5), and digested for 16 h at 37° C. with 2% (by weight) of modified trypsin (Boehringer Mannheim, Indianapolis, Ind.). Aliquots of 20 μg were resolved on a 250×4.6 mm Beckman Ultrasphere C18 HPLC column. Separated peaks were analyzed for radioactivity and peaks containing activity were attached to a solid support for sequencing as before (Steinert, P. M. and L. N. Marekov, J. Biol. Chem., 270: 17702-17711 (1995), herein expressly incorporated by reference in its entirety). As the peptide number 40 eluted by 50% acetonitrile (see FIG. 9) was too long for direct sequencing, it was subjected to limited proteolysis by dispase and was sequenced from four peptides isolated by HPLC chromatography as above. […]

TGase 1 [4] = target: T1, TGase 1; assay: Free Ca++ dependence of 14C-putrescine incorporation by TGase 1; format: biochemical
Description: Activity values are given as percent of the values measured at 1 mM Ca^++. […] Points represent the means±s.d. of three independent measurements.
The optimal Ca^++ ion concentration required for the TGase 1 reaction has not been measured for any substrate. Standard in vitro solution assays contain 1-5 mM Ca^++. (Folk, J. E. and J. S. Finlayson, Adv. Protein Chem., 31: 1-133 (1977); Folk, J. E., Adv. Enzymol. Related Areas Mol. Biol., 54: 1-56 (1983); and Lorand, L. S. M. Conrad, Mol. Cell Biochem., 58: 9-35 (1984)). […] (FIG. 6, open symbols). […] (FIG. 2).
as §1

[5] = SLV containing 15% PS compared to solubilized TGase 1 and soluble involucrin

B1: Involucrin: recombinant purified human involucrin expressed in E. coli (protein)
chain: MSQQHTLPVTLSPALSQELLKTVPPPVNTHQEQMKQPTPLPPPCQKVPVELPVEVPSKQEEKHMTAVKGLPEQECEQQQKEPQEQELQQQHWEQHEEYQKAENPEQQLKQEKTQRDQQLNKQLEEEKKLLDQQLDQELVKRDEQLGMKKEQLLELPEQQEGHLKHLEQQEGQLKHPEQQEGQLELPEQQEGQLELPEQQEGQLELPEQQEGQLELPEQQEGQLELPEQQEGQLELPQQQEGQLELSEQQEGQLELSEQQEGQLKHLEHQEGQLEVPEEQMGQLKYLEQQEGQLKHLDQQEKQPELPEQQMGQLKHLEQQEGQPKHLEQQEGQLEQLEEQEGQLKHLEQQEGQLEHLEHQEGQLGLPEQQVLQLKQLEKQQGQPKHLEEEEGQLKHLVQQEGQLKHLVQQEGQLEQQERQVEHLEQQVGQLKHLEEQEGQLKHLEQQQGQLEVPEQQVGQPKNLEQEEKQLELPEQQEGQVKHLEKQEAQLELPEQQVGQPKHLEQQEKHLEHPEQQDGQLKHLEQQEGQLKDLEQQKGQLEQPVFAPAPGQVQDIQPALPTKGEVLLPVEHQQQKQEVQWPPKHK
**Q.** How did the “decrease of KM” value (TGase 1 [1]; [5]) turn out when B1 was run?
**A.** approximately 40 fold

**Q.** What about the “decrease of kcat value” (TGase 1 [1]; [5]) of the same molecule?
**A.** 200 fold

**Q.** What about the “kinetic parameters as a substrate” value (TGase 1 [1]; SLV formulated in the absence of PS) of the same molecule?
**A.** immeasurably low

**Q.** And the Km (TGase 1 [1]; SLV-bound TGase 1 (15% PS))?
**A.** 2.9 ± 0.4 µM

**Q.** What about the Vmax (TGase 1 [1]; SLV-bound TGase 1 (15% PS)) of the same molecule?
**A.** 2.4 ± 0.4 pmol/min

**Q.** What about the “kcat(putrescine)” value (TGase 1 [1]; SLV-bound TGase 1 (15% PS)) of the same molecule?
**A.** 0.0425 s⁻¹

**Q.** What about the Vmax (TGase 1 [1]; Solubilized TGase 1, 0.94 pmol) of the same molecule?
**A.** 482 ± 37 pmol/min

**Q.** What about the “kcat(putrescine)” value (TGase 1 [1]; Solubilized TGase 1, 0.94 pmol) of the same molecule?
**A.** 8.55 s⁻¹

**Q.** What about the Km (TGase 1 [1]; Solubilized TGase 1) of the same molecule?
**A.** 114 ± 19 µM

**Q.** And the “Ca++ concentration above which binding to SLV occurs” value ([2]; SLV containing 12-18% phosphatidylserine)?
**A.** above 1 μM

**Q.** And the “amount saturating SLV” value ([2]; SLVs containing 15-30% PS)?
**A.** 0.43±0.02 nmol involucrin/μmol lipid

**Q.** What about the “free Ca++ concentration at which binding to SLVs was first detected” value ([2]; SLVs containing 15 mol % PS) of the same molecule?
**A.** 1 :M

**Q.** And the “free Ca++ concentration for maximal binding to SLVs” value ([2]; SLVs containing 15 mol % PS, saturating involucrin)?
**A.** > 20 µM

**Q.** And the putrescine incorporated (TGase 1 [3]; membrane-bound TGase 1 (Sf9 particulate membranes or SLV with 15% PS))?
**A.** approximately 1 mol of putrescine/mol of invol

**Q.** And the putrescine incorporated (TGase 1 [3]; solubilized recombinant TGase 1, no membranes or SLV, 20 mM putrescine, 4 h, 37° C.)?
**A.** about 20 mol of putrescine incorporated/mol of involucrin

B2: TGase 1: recombinant full-length human transglutaminase 1 expressed in Sf9 cells by baculovirus, solubilized or bound to SLV (protein)
chain: MMDGPRSDVGRWGGNPLQPPTTPSPEPEPEPDGRSRRGGGRSFWARCCGCCSCRNAADDDWGPEPSDSRGRGSSSGTRRPGSRGSDSRRPVSRGSGVNAAGDGTIREGMLVVNGVDLLSSRSDQNRREHHTDEYEYDELIVRRGQPFHMLLLLSRTYESSDRITLELLIGNNPEVGKGTHVIIPVGKGGSGGWKAQVVKASGQNLNLRVHTSPNAIIGKFQFTVRTQSDAGEFQLPFDPRNEIYILFNPWCPEDIVYVDHEDWRQEYVLNESGRIYYGTEAQIGERTWNYGQFDHGVLDACLYILDRRGMPYGGRGDPVNVSRVISAMVNSLDDNGVLIGNWSGDYSRGTNPSAWVGSVEILLSYLRTGYSVPYGQCWVFAGVTTTVLRCLGLATRTVTNFNSAHDTDTSLTMDIYFDENMKPLEHLNHDSVWNFHVWNDCWMKRPDLPSGFDGWQVVDATPQETSSGIFCCGPCSVESIKNGLVYMKYDTPFIFAEVNSDKVYWQRQDDGSFKIVYVEEKAIGTLIVTKAISSNMREDITYLYKHPEGSDAERKAVETAAAHGSKPNVYANRGSAEDVAMQVEAQDAVMGQDLMVSVMLINHSSSRRTVKLHLYLSVTFYTGVSGTIFKETKKEVELAPGASDRVTMPVAYKEYRPHLVDQGAMLLNVSGHVKESGQVLAKQHTFRLRTPDLSLTLLGAAVVGQECEVQIVFKNPLPVTLTNVVFRLEGSGLQRPKILNVGDIGGNETVTLRQSFVPVRPGPRQLIASLDSPQLSQVHGVIQVDVAPAPGDGGFFSDAGGDSHLGETIPMASRGGA
**Q.** For B2, which “saturating amount on SLV” value ([2]; SLV composed of 15% PS) is on record?
**A.** approximately 0.9 nmol of TGase 1/μmol of lipid

**Q.** And the “binding to SLVs” value ([2]; TGase 1 purified by the NH2OH—HCl method (S-acyl adducts hydrolysed))?
**A.** unable to bind to SLVs

**Q.** And the “binding to SLVs” value ([2]; TGase 1 purified from Triton X-100 extracts (lipid adducts retained))?
**A.** spontaneously associates with SLVs

**Q.** What about the “Ca++ concentration above which enzyme becomes active in cross-linking” value (TGase 1 [4]; TGase 1 bound to SLV) of the same molecule?
**A.** above 10 μM

**Q.** And the “lowering of Ca++ concentration required for cross-linking of involucrin versus soluble enzyme and substrate” value (TGase 1 [4]; membrane-bound versus soluble TGase 1)?
**A.** 10 fold

**Q.** What about the “Ca++ concentration above which enzyme becomes active in cross-linking” value (TGase 1 [4]; solution assays) of the same molecule?
**A.** above 100 μM
